# T1: calsenilin (CSEN), endogenous in mouse hippocampus or brain (mouse (endogenous in hippocampus), UniProt Q9QXT8 1-256)
# T1 construct: calsenilin (CSEN, DREAM, KChIP3), endogenous mouse protein; a mixture of phosphorylated and dephosphorylated forms in the lysate; The state of phosphorylation differs with genotype and treatment; also called pCSEN; DREAM; source: endogenous, mouse hippocampus lysate (RIPA); crude extracts of PLPP/CIN-/- mouse brain
# T1 sequence (looked up): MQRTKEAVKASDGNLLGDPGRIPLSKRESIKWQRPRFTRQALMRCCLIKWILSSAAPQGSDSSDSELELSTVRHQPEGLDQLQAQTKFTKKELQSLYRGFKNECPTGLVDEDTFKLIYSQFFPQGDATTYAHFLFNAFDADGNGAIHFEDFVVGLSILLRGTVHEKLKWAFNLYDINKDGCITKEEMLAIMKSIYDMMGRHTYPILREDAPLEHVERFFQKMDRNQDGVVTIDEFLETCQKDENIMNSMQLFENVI
# B1: recombinant human pyridoxal-5'-phosphate phosphatase/chronophin (PLPP/CIN) (enzyme, UniProt Q96GD0 1-296, looked up)
# chain: MARCERLRGAALRDVLGRAQGVLFDCDGVLWNGERAVPGAPELLERLARAGKAALFVSNNSRRARPELALRFARLGFGGLRAEQLFSSALCAARLLRQRLPGPPDAPGAVFVLGGEGLRAELRAAGLRLAGDPSAGDGAAPRVRAVLVGYDEHFSFAKLREACAHLRDPECLLVATDRDPWHPLSDGSRTPGTGSLAAAVETASGRQALVVGKPSPYMFECITENFSIDPARTLMVGDRLETDILFGHRCGMTTVLTLTGVSRLEEAQAYLAAGQHDLVPHYYVESIADLTEGLED
# notes: pyridoxal-5'-phosphate phosphatase/chronophin (PLPP/CIN), human, recombinant protein from Abcam; the words 'full-length recombinant human' stand before CSEN and are read as holding for PLPP/CIN too; source: bought: Abcam (recombinant)
# Target: T1, calsenilin (CSEN), endogenous in mouse …
# Experiment: co-IP; in vitro: recombinant PLPP/CIN (10 ng/ul) added to crude extracts of PLPP/CIN^-/- mouse brain at 30°C for 1 h; co-precipitation with endogenous CSEN and western blot
# Conditions: one partner purified
binder,measurement,value
B1,"binding of CSEN with CK1 left in the presence of PLPP/CIN, fold of vehicle",0.68 fold of vehicle level
